Entries after “also recorded” stand apart in the source; their conditions may differ.
B1: CCL4/MIP-1β: canonical CCR5 ligand (protein, UniProt P14097 24-92, looked up)
C-C motif chemokine 4: APMGSDPPTSCCFSYTSRQLHRSFVMDYYETSSLCSKPAVVFLTKRGRQICANPSEPWVTEYMSDLELN
B2: hrNAMPT(2): Second commercially available human recombinant NAMPT protein source (protein)
chain: MNPAAEAEFNILLATDSYKVTHYKQYPPNTSKVYSYFECREKKTENSKLRKVKYEETVFYGLQYILNKYLKGKVVTKEKIQEAKDVYKEHFQDDVFNEKGWNYILEKYDGHLPIEIKAVPEGFVIPRGNVLFTVENTDPECYWLTNWIETILVQSWYPITVATNSREQKKILAKYLLETSGNLDGLEYKLHDFGYRGVSSQETAGIGASAHLVNFKGTDTVAGLALIKKYYGTKDPVPGYSVPAAEHSTITAWGKDHEKDAFEHIVTQFSSVPVSVVSDSYDIYNACEKIWGEDLRHLIVSRSTQAPLIIRPDSGNPLDTVLKVLEILGKKFPVTENSKGYKLLPPYLRVIQGDGVDINTLQEIVEGMKQKMWSIENIAFGSGGGLLQKLTRDLLNCSFKCSYVVTNGLGINVFKDPVADPNKRSKKGRLSLHRTPAGNFVTLEEGKGDLEEYGQDLLHTVFKNGKVTKSYSFDEIRKNAQLNIELEAAHH
B3: CCL8/MCP-2: canonical CCR5 ligand (protein, UniProt Q9Z121 24-97, looked up)
C-C motif chemokine 8: GPDKAPVTCCFHVLKLKIPLRVLKSYERINNIQCPMEAVVFQTKQGMSLCVDPTQKWVSEYMEILDQKSQILQP
B4: hrNAMPT(1): Commercially available human recombinant NAMPT source 1 (Peprotech); used in the mouse injury model (protein)
chain: PPNTSKVYSYFECREKKTENSKLRKVKYEETVFYGLQYILNKYLKGKVVTKEKIQEAKDVYKEHFQDDVFNEKGWNYILEKYDGHLPIEIKAVPEGFVIPRGNVLFTVENTDPECYWLTNWIETILVQSWYPITVATNSREQKKILAKYLLETSGNLDGLEYKLHDFGYRGVSSQETAGIGASAHLVNFKGTDTVAGLALIKKYYGTKDPVPGYSVPAAEHSTITAWGKDHEKDAFEHIVTQFSSVPVSVVSDSYDIYNACEKIWGEDLRHLIVSRSTQAPLIIRPDSGNPLDTVLKVLEILGKKFPVTENSKGYKLLPPYLRVIQGDGVDINTLQEIVEGMKQKMWSIENIAFGSGGGLLQKLTRDLLNCSFKCSYVVTNGLGINVFKDPVADPNKRSKKGRLSLHRTPAGNFVTLEEGKGDLEEYGQDLLHTVFKNGKVTKSYSFDEIRKNAQLNIELEAAHH
B5: NAMPT422-491: Truncated hNAMPTcif, residues 422-491 of full length NAMPT, SEQ ID NO: 6 (His-tagged: SEQ ID NO: 7) (protein)
chain: NKRSKKGRLSLHRTPAGNFVTLEEGKGDLEEYGQDLLHTVFKNGKVTKSYSFDEIRKNAQLNIELEAAHH
B6: NAMPT430-491: Truncated hNAMPTcif, residues 430-491 of full length NAMPT, SEQ ID NO: 8 (His-tagged: SEQ ID NO: 9) (protein)
chain: LSLHRTPAGNFVTLEEGKGDLEEYGQDLLHTVFKNGKVTKSYSFDEIRKNAQLNIELEAAHH
B7: NAMPT414-491: Truncated hNAMPTcif, residues 414-491 of full length NAMPT, SEQ ID NO: 4 (His-tagged: SEQ ID NO: 5) (protein)
chain: FKDPVADPNKRSKKGRLSLHRTPAGNFVTLEEGKGDLEEYGQDLLHTVFKNGKVTKSYSFDEIRKNAQLNIELEAAHH

Legend:
C2C12 myoblasts = test: C2C12 myoblast proliferation by EdU incorporation; format: cell-based, mouse; settings: exogenously added factor vs control
Method: FIG. 2. […] In vitro assay assessing the effects of exogenously introduced factors on C2C12 myoblast proliferation. Proliferation is identified by EdU incorporation. […] Mean+S.D. Two-way ANOVA with Tukey's multiple comparison test. […] Mean±SEM
The mouse muscle cell line C2C12 (Yaffe, D. & Saxel, O. Serial passaging and differentiation of myogenic cells isolated from dystrophic mouse muscle. Nature 270, 725 (1977) were cultured in growth media (Dulbecco's Modified Eagle Medium (4.5 g/l D-Glucose, No L Glutamine, No Sodium Pyruvate (Gibco))+20% Fetal Bovine Solution-One Shot (Gibco)+1% Glut Max 100×(Gibco)). Cells were maintained at 37° C., 5% CO2. Cells at 70% confluence, passage 8 were extracted from T75 flasks with 0.025% Tryspin EDTA (Gibco), neutralised in growth media, spun at 180×g for 5 min to pellet cells. The cells were then resuspended in 10 ml of fresh growth media. 500 μl of cells were plated on a 8-well on cover glass II (Sarstedt) chamber slide at a density of 1×10^3 cells/ml. Cells were left 4 h at 37° C. to re-attach. For drug treatments, the media were supplemented with appropriate doses and cultured for 6 h.

[1] = tested on: C2C12 murine myoblast cells; test: C2C12 cell proliferation, CyQuant Proliferation Assay kit; format: cell-based, mouse; settings: 20 nM, 48 hours, compared with full-length NAMPT
Method: FIG. 7. Human NAMPT variants stimulate muscle progenitor proliferation. C2C12 mouse myoblasts were treated with 20 nM full length NAMPT (NAMPT) or NAMPT variants for (NAMPTxxx-xxx, where xxx are amino acid numbers) 48 hours. Quantification of cell proliferation was performed using CyQuant Proliferation Assay kit. […] Box and whiskers denote median with minimum and maximum values. n=4-5 independent experiments per protein. Statistical significance is indicated as exact p-value. […] Significance between conditions were analysed by one-way ANOVA with Tukey post-hoc test.
Human NAMPTcif (hNAMPTcif) and truncated variants of hNAMPTcif were designed by progressively removing N-terminal regions containing positively charged amino acids. Four truncations were produced and numbered T1 to T4. Recombinant protein was produced using a bacterial expression system. hNAMPTcif variants were purified by FPLC using His-tag affinity purification. Cell proliferation assays were performed using C2C12 murine myoblast cells treated with purified recombinant hNAMPTcif variants, as well as full length NAMPT. Cells were treated with 10 nM of recombinant protein for 48 hours in DMEM supplemented with 2% foetal bovine serum at 37° C., 5% CO2. PBS treatment was used as a negative control. 10% foetal bovine serum was used as positive control. Quantification of proliferation was performed using commercially-available CyQuant Proliferation Assay kit (Thermo Fisher Scientific) according to manufacturer's instructions and read using a Synergy H1 plate reader (BioTek). Data were presented as percentage increase versus.
The heparin-binding sequence of placenta growth factor 2 (PIGF2) was fused to the N-terminus of NAMPTcif and produced using a bacterial expression system. PIGF-NAMPTcif was purified by FPLC using His-tag affinity purification followed by size exclusion chromatography. Cell proliferation assays were performed using C2C12 murine myoblast cells treated with purified recombinant NAMPTcif and full length NAMPT. Cells were treated with 2 nM, 10 nM and 20 nM concentrations of recombinant protein for 48 hours in DMEM supplemented with 2% foetal bovine serum at 37° C., 5% CO2. PBS treatment was used as a negative control. 10% foetal bovine serum was used as positive control. Quantification of proliferation was performed using commercially-available CyQuant Proliferation Assay kit (Thermo Fisher Scientific) according to manufacturer's instructions and read using a Synergy H1 plate reader (BioTek). Data were presented as percentage increase versus negative control. A two-tailed unpaired t-test was used to determine statistical significance.

[2] = tested on: Human primary satellite cells; test: Human primary satellite cell proliferation, CyQuant; format: cell-based; settings: 20 nM; 48 hours; media with IGF-1 and FGF-2
Method: (§1) FIG. 8. Human NAMPT variants stimulate human satellite cell proliferation. Human primary satellite cells were treated with 20 nM full length NAMPT (NAMPT) or NAMPT variants (NAMPTxxx-xxx, where xxx are amino acid numbers) for 48 hours. The media contained the growth factors IGF-1 and FGF-2 as well. Quantification of cell proliferation was performed using CyQuant Proliferation Assay kit. […] Treatment with 20% FBS was used as a positive control. Box and whiskers denote median with minimum and maximum values. n=6-10 independent experiments per protein. Statistical significance is indicated as p-value and determined by one-sample t-test.
The inventors next sought to compare the activity of full length NAMPT, NAMPT402-491 and NAMPT422-491 on human satellite cell proliferation. Human primary satellite cells were treated with 20 nM full length NAMPT (NAMPT) or NAMPT402-491 and NAMPT422-491 for 48 hours.

[3] = tested on: Human primary endothelial cells derived from umbilical vein; test: Human primary endothelial cell proliferation, CyQuant; format: cell-based; settings: 20 nM; 48 hours
Method: as §1, with “9.” for “8.”, “endothelial” for “satellite”, “cells derived from umbilical vein” for “cells”, “hours.” for “hours. The media contained the growth factors IGF-1 and FGF-2 as well.”, “10%” for “20%”, “n=6” for “n=6-10”
Similarly, the inventors next investigated the activity of full length NAMPT, NAMPT402-491 and NAMPT422-491 on human endothelial cell proliferation. Human endothelial cells were derived from umbilical vein and treated with 20 nM full length NAMPT (NAMPT) or NAMPT variants for 48 hours.

[4] = tested on: needle-stab muscle injury in zebrafish larvae; test: Larval zebrafish muscle injury and EdU pulse-chase; format: in vivo; settings: 57 nM in Ringer's solution immediately after injury at 4 dpf; EdU at 2 dpi
Method: Zebrafish larvae (4 dpf) were anaesthetized in 0.01% tricaine (MS-222) (Sigma-Aldrich) in Ringer's solution. Needle-stab injury was carried out in the dorsal myotome, consisting in a single 30-gauge needle puncture that generates an extensive injury with many damaged muscle fibres. Nampt fragment treatments were carried out by incubating 4 dpf needle-stab-injured larvae in 57 nM Nampt in Ringer's solution immediately after injury. Needle-stab-injured larvae at 6 dpf (2 dpi) were transferred into Ringer's solution containing 50 μg ml-1 EdU (Thermo Fisher Scientific) for 1 h and chased for a further 1.5 h before fixation. Samples were developed using the Click-iT EdU Alexa Fluor 647 imaging Kit (Thermo Fisher Scientific) following the manufacturer's protocol, followed by a phalloidin immunostaining (Thermo Fisher Scientific). EdU+ cells in a region encompassing two myotomes on either side of the injury were quantified as the number of EdU+ cells outside the injury region. EdU+ cells in the caudal haematopoietic tissue were excluded from this analysis. Statistical analysis has been conducted using Two-way ANOVA with Tuckey's multiple comparison test.

| Molecule | myoblast proliferation (EdU incorporation), factor alone (C2C12 myoblasts) | cell proliferation, percentage increase vs PBS-treated control [1] | further results |
| --- | --- | --- | --- |
| B1 | could be recapitulated | – | myoblast proliferation (EdU incorporation), factor alone (C2C12 myoblasts; listed as mrCCL4): functioned to enhance C2C12 proliferation |
| B2 | dose dependent increase in myoblast proliferation; also recorded: comparable and significant dose dependent increases in myoblast proliferation | – | – |
| B3 | could be recapitulated | – | myoblast proliferation (EdU incorporation), factor alone (C2C12 myoblasts; listed as mrCCL8): functioned to enhance C2C12 proliferation |
| B4 | dose dependent increase in myoblast proliferation; also recorded: comparable and significant dose dependent increases in myoblast proliferation | – | – |
| B5 | – | highest cellular proliferation compared to all NAMPT variants tested; also recorded: statistically significant increase in proliferation | satellite cell proliferation, percentage increase vs PBS-treated control [2]: even greater satellite cell proliferation compared to both full length NAMPT and NAMPT402-491; endothelial cell proliferation, percentage increase vs PBS-treated control [3]: still stimulated endothelial cell proliferation above negative control; cell proliferation (EdU-positive cells) within the injury zone [4]: significant increase in cell proliferation within the injury zone; also recorded: significantly higher levels as compared to human recombinant-NAMPT (hrNAMPT) |
| B6 | – | enhanced cellular proliferation compared to full-length NAMPT | – |
| B7 | – | enhanced cellular proliferation compared to full-length NAMPT | – |

— patent US20250257332A1, “TRUNCATED AND FUSION PROTEINS” (Monash University, priority 2021, published 2025)
